For this assay, the target named is T1, phosphorylated ubiquitin (UniProt P0CG47 1-76, phosphorylated (site not given)).
T1 construct: ubiquitin, the mature cut product of its precursor; also called pUb; source: prepared as described [16]
Kind of assay: HDX-MS; native-state hydrogen exchange with pepsin fragmentation MS; 20 mM HEPES, 150 mM NaCl, 10 uM ZnCl2, 1 mM TCEP, 2.5% glycerol, pH 7.0, 20 °C, urea up to 4 M; ~7 uM Parkin(∆Ubl), ~12 uM pUb. The note with it: both partners purified.

Experimental findings from PMC11506642, “Cooperative Substructure and Energetics of Allosteric Regulation of the Catalytic Core of the E3 Ubiquitin Ligase Parkin by Phosphorylated Ubiquitin” (Biomolecules, 2024) are described below.

B1: Parkin(∆Ubl) (domain or fragment, human)
chain: SSGSPAGRSIYNSFYVYCKGPCQRVQPGKLRVQCSTCRQATLTLTQGPSCWDDVLIPNRMSGECQSPHCPGTSAEFFFKCGAHPTSDKETSVALHLIATNSRNITCITCTDVRSPVLVFQCNSRHVICLDCFHLYCVTRLNDRQFVHDPQLGYSLPCVAGCPNSLIKELHHFRILGEEQYNRYQQYGAEECVLQMGGVLCPRPGCGAGLLPEPDQRKVTCEGGNGLGCGFAFCRECKEAYHEGECSAVFEASGTTTQAYRVDERAAEQARWEAASKETIKKTTKPCPRCHVPVEKNGGCMHMKCPQPQCRLEWCWNCGCEWNRVCMGDHWFDV
notes: two extra serines that precede the Parkin residues in the construct; E3 ubiquitin ligase Parkin, human, canonical isoform (Swiss-Prot O60260-1), residues 135 through 465; RING0, RING1, IBR, REP and RING2 domains, without the Ubl domain and linker; The introduction defines the core as residues 137-461; the methods give the construct as (SS) plus 135-465; The His-SUMO fusion was cut with TEV …
In the case of B1, the binding result is “binds”.
